Laboratory results from patent US20240383958A1, “APELIN RECEPTOR AGONISTS AND USES THEREOF” (VISTERRA, INC., priority 2023, published 2024).
Substitutions are numbered along the chain they refer to. In names and notes the source's numbering stands.

T1: apelin receptor (Homo sapiens, UniProt P35414)
T1 construct: host or cells: human heart tissue
T1 sequence (P35414 1-380): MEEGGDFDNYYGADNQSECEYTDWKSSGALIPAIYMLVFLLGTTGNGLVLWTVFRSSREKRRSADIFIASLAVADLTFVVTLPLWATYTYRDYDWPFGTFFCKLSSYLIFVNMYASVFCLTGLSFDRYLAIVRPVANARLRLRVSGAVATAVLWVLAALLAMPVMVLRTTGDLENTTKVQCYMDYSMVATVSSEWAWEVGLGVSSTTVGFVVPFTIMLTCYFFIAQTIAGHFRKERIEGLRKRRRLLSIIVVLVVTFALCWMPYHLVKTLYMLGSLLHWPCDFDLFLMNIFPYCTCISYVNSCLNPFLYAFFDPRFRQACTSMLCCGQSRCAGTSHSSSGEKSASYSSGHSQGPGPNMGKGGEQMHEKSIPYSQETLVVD

T2: apelin receptor (AGTRL1) (Homo sapiens, UniProt P35414)
T2 construct: host or cells: CHO-K1
T2 sequence (P35414 1-380): T1 sequence (P35414 1-380)

B1: ELA-D: Fc-linker fusion of elabela analogue KLRKHNCLQRRCMPLHQRVPFP (S17Q) (protein)
chain: MRAWIFFLLCLAGRALADKTHTSPPSPAPEAAGGPSVFLFPPKPKDTLMISRTPEVTCVVVDVSHEDPEVKFNWYVDGVEVHNAKTKPREEQYNSTYRVVSVLTVLHQDWLNGKEYKCKVSNKALPAPIEKTISKAKGQPREPQVYTLPPSREEMTKNQVNLTCLVKGFYPSDIAVEWESNGQPENNYKTTPPVLDSDGSFFLNSTLTVDKSRWQQGNVFSCSVMHEALHNHYTQKSLSLSPGKGGGGSGGGGSGGGGSKLRKHNCLQRRCMPLHQRVPFP
B2: ELA-E: Fc-linker fusion of elabela analogue KLRKHNCLQRRCMPLHRRVPFP (S17R) (protein)
chain: B1 chain with Q276R

Assays:
apelin receptor = target: T1, apelin receptor; conditions: human heart; cited from earlier work
[1] = Proteolysis during production detected using mass spectroscopy; assay type: physicochemical; conditions: proteolytic stability
From the text: Proteolysis during production was detected using mass spectroscopy, which provides insights into the proteolytic stability of the apelin receptor agonists.

apelin receptor (AGTRL1) = target: T2, apelin receptor (AGTRL1); assay: PathHunter beta-arrestin signaling assay; assay type: cell-based; conditions: Exp. 1; PathHunter CHO-K1 AGTRL1 β-arrestin cells
Procedure: In this example, commercially available HitHunter® cAMP assay was used to determine the effect of apelin receptor agonists on Gai signaling, measured cAMP depletion. Next, commercially available PathHunter® beta-arrestin assay was used to determine the effect of apelin receptor agonists on beta-arrestin signaling. Additionally, the effect of apelin receptor agonists on ERK signaling was determined.
In a 384-well plate (Corning #3897), PathHunter® CHO-K1 AGTRL1 β-arrestin cells (Eurofins DiscoverX #93-0250C2) were seeded at 5×10^3 cells/well in 20 μL AssayComplete Cell Plating 2 Reagent (Eurofins DiscoverX #93-0563R2A) and were incubated overnight at 37° C. with 5% CO2. On the following day, the plate was treated with 5 μL/well of compounds serially diluted in 1×PBS+0.1% BSA buffer and was incubated for 1.5 hr at 37° C. with 5% CO2. Then, 12.5 μL/well of detection solution was added, prepared as instructed in the PathHunter® Detection Kit (Eurofins DiscoverX #93-0001), the plate was wrapped in foil, and was incubated at room temperature. Plates were read after 1-2 hr of incubation on a standard luminescence plate reader. In this assay, low levels of β-arrestin in cells were directly related to low luminescence signal. Using Four Parameter Logistic Regression for curve fitting, the raw data file was processed into S-shaped dose-response curves from which values, such as the EC50, Hill Slope, and Emax, were quantified.

APJ-eGFP fusion protein = assay: Internalization assay, CHO-M1 cells expressing APJ-eGFP, high-content imaging; assay type: cell-based; parameters: key: 0: No Internalization; >1000; 2: 100-1000; 3: 10-100; 4: <10; conditions: lowest concentration at which maximum internalization was observed; 0.914 nM to 2000 nM
Procedure: In this example, the internalization of exemplary apelin receptor agonist was assessed. CHO-M1 cells expressing an APJ-eGFP fusion protein were stained and plated in a 96-well plate. Apelin receptor agonists were serially diluted and added to the wells at concentrations ranging from 0.914 nM to 2000 nM. The cells were later imaged using an Operetta CLS™ high-content analysis system. APJ-eGFP signal was measured in the membrane and cytoplasmic region, and the ratio of membrane signal to total signal was calculated (E ratio). An internalization score was assigned based on the lowest concentration of the compound at which maximum internalization was observed. The internalization score for each apelin receptor agonist was plotted against the EC50 values for cAMP signaling and beta-arrestin signaling as shown in FIG. 2 and FIG. 3.

Molecule	affinity for the apelin receptor (apelin receptor)	Proteolysis During Production? [1]	beta-Arrestin EC50 (nM) Exp. 1 (apelin receptor (AGTRL1))	Internalization Score (APJ-eGFP fusion protein)
elabela-21	nanomolar affinity			
B1		No	Weak	1 (>1000)
B2		No	Weak	0
